Results published in patent US20150337049A1 (Genmab, published 2015).

How the values were obtained:
[1] = target: T1, C1q (from 3% pooled human serum) (human, UniProt P02745 23-245; P02746 28-253; P02747 29-245); assay: ELISA, antibody coated, 3% pooled human serum, anti-C1q detection
T1 construct: Native C1q of pooled human serum, detected with rabbit anti-human C1q
Experimental: Plates were washed and blocked with PBS supplemented with 0.025% Tween 20 and 0.1% gelatine. […] Detection was performed by addition of 1 mg/mL 2,2′-azino-bis(3-ethylbenzothiazoline-6-sulfonic acid) (ABTS; Roche, Mannheim, Germany) for about 30 min. The reaction was stopped by the addition of 100 μL 2% oxalic acid. Absorbance was measured at 405 nm in a microplate reader (Biotek, Winooski, Vt.). Log transformed data were analyzed by fitting sigmoidal dose-response curves with variable slope using GraphPad Prism software.

[2] = target: T2, HER2 on HER2-positive AU565 cells (human, UniProt P04626 23-1255); assay: FACS, AU565 cells
T2 construct: whole, on cells
Experimental: Cells (1×10^5 cells/well) were incubated in polystyrene 96-well round-bottom plates (Greiner bio-one 650101) with serial dilutions of antibody preparations (range 2 to 10000 ng/mL in 4-fold dilutions for Jurkat cells and range 1 to 3000 ng/mL in 4-fold dilutions for on AU565 cells) in 100 μL PBS/0.1% BSA/0.02% azide at 4° C. for 30 min.
After washing twice in PBS/0.1% BSA/0.02% azide, cells were incubated in 100 μL with secondary antibody at 4° C. for 30 min. As a secondary antibody, R-Phycoerythrin (PE)-conjugated goat-anti-human IgG F(ab′)₂ (109-116-098, Jackson ImmunoResearch Laboratories, Inc., West Grove, Pa.) diluted 1/100 in PBS/0.1% BSA/0.02% azide, was used for all experiments. Next, cells were washed twice in PBS/0.1% BSA/0.02% azide, resuspended in 150 μL PBS/0.1% BSA/0.02% azide and analyzed on a FACS CantoII (BD Biosciences). Binding curves were analyzed using non-linear regression (sigmoidal dose-response with variable slope) using GraphPad Prism V5.04 software (GraphPad Software, San Diego, Calif., USA).

| Binder | binding result [2] | binding result [1] |
| --- | --- | --- |
| bsIgG1-CD3×HER2-LFLE (IgG1-huCLB-T3/4×HER2-169 with L234F/L235E) (bispecific antibody) heavy 1: EVQLVESGGGLVKPGGSLRLSCAASGFTFSSYGMFWVRQAPGKGLEWVATISRYSRYIYYPDSVKGRFTISRDNAKNSLYLQMNSLRAEDTAVYYCARRPLYGSSPDYWGQGTLVTVSSASTKGPSVFPLAPSSKSTSGGTAALGCLVKDYFPEPVTVSWNSGALTSGVHTFPAVLQSSGLYSLSSVVTVPSSSLGTQTYICNVNHKPSNTKVDKRVEPKSCDKTHTCPPCPAPEFEGGPSVFLFPPKPKDTLMISRTPEVTCVVVDVSHEDPEVKFNWYVDGVEVHNAKTKPREEQYNSTYRVVSVLTVLHQDWLNGKEYKCKVSNKALPAPIEKTISKAKGQPREPQVYTLPPSREEMTKNQVSLTCLVKGFYPSDIAVEWESNGQPENNYKTTPPVLDSDGSFLLYSKLTVDKSRWQQGNVFSCSVMHEALHNHYTQKSLSLSPGK VL 1: EIVLTQSPATLSLSPGERATLSCSASSSVTYVHWYQQKPGQAPRLLIYDTSKLASGIPARFSGSGSGTDFTLTISSLEPEDFAVYYCFQGSGYPLTFGSGTKLEMR heavy 2: QVQLVQSGAEVKKPGASVKVSCKASGYTFTNYGISWVRQAPGQGLEWMGWLSAYSGNTIYAQKLQGRVTMTTDTSTTTAYMELRSLRSDDTAVYYCARDRIVVRPDYFDYWGQGTLVTVSSASTKGPSVFPLAPSSKSTSGGTAALGCLVKDYFPEPVTVSWNSGALTSGVHTFPAVLQSSGLYSLSSVVTVPSSSLGTQTYICNVNHKPSNTKVDKRVEPKSCDKTHTCPPCPAPEFEGGPSVFLFPPKPKDTLMISRTPEVTCVVVDVSHEDPEVKFNWYVDGVEVHNAKTKPREEQYNSTYRVVSVLTVLHQDWLNGKEYKCKVSNKALPAPIEKTISKAKGQPREPQVYTLPPSREEMTKNQVSLTCLVKGFYPSDIAVEWESNGQPENNYKTTPPVLDSDGSFFLYSRLTVDKSRWQQGNVFSCSVMHEALHNHYTQKSLSLSPGK VL 2: EIVLTQSPATLSLSPGERATLSCRASQSVSSYLAWYQQKPGQAPRLLIYDASNRATGIPARFSGSGSGTDFTLTISSLEPEDFAVYYCQQRSNWPRTFGQGTKVEIK | binds | no binding (tested: coated at 7-30000 ng/mL) |
| bsIgG1-CD3×HER2-LFLENQ (IgG1-huCLB-T3/4×HER2-169 with L234F/L235E/N297Q) (bispecific antibody) heavy 1: EVQLVESGGGLVKPGGSLRLSCAASGFTFSSYGMFWVRQAPGKGLEWVATISRYSRYIYYPDSVKGRFTISRDNAKNSLYLQMNSLRAEDTAVYYCARRPLYGSSPDYWGQGTLVTVSSASTKGPSVFPLAPSSKSTSGGTAALGCLVKDYFPEPVTVSWNSGALTSGVHTFPAVLQSSGLYSLSSVVTVPSSSLGTQTYICNVNHKPSNTKVDKRVEPKSCDKTHTCPPCPAPEFEGGPSVFLFPPKPKDTLMISRTPEVTCVVVDVSHEDPEVKFNWYVDGVEVHNAKTKPREEQYQSTYRVVSVLTVLHQDWLNGKEYKCKVSNKALPAPIEKTISKAKGQPREPQVYTLPPSREEMTKNQVSLTCLVKGFYPSDIAVEWESNGQPENNYKTTPPVLDSDGSFLLYSKLTVDKSRWQQGNVFSCSVMHEALHNHYTQKSLSLSPGK VL 1: EIVLTQSPATLSLSPGERATLSCSASSSVTYVHWYQQKPGQAPRLLIYDTSKLASGIPARFSGSGSGTDFTLTISSLEPEDFAVYYCFQGSGYPLTFGSGTKLEMR heavy 2: QVQLVQSGAEVKKPGASVKVSCKASGYTFTNYGISWVRQAPGQGLEWMGWLSAYSGNTIYAQKLQGRVTMTTDTSTTTAYMELRSLRSDDTAVYYCARDRIVVRPDYFDYWGQGTLVTVSSASTKGPSVFPLAPSSKSTSGGTAALGCLVKDYFPEPVTVSWNSGALTSGVHTFPAVLQSSGLYSLSSVVTVPSSSLGTQTYICNVNHKPSNTKVDKRVEPKSCDKTHTCPPCPAPEFEGGPSVFLFPPKPKDTLMISRTPEVTCVVVDVSHEDPEVKFNWYVDGVEVHNAKTKPREEQYQSTYRVVSVLTVLHQDWLNGKEYKCKVSNKALPAPIEKTISKAKGQPREPQVYTLPPSREEMTKNQVSLTCLVKGFYPSDIAVEWESNGQPENNYKTTPPVLDSDGSFFLYSRLTVDKSRWQQGNVFSCSVMHEALHNHYTQKSLSLSPGK VL 2: EIVLTQSPATLSLSPGERATLSCRASQSVSSYLAWYQQKPGQAPRLLIYDASNRATGIPARFSGSGSGTDFTLTISSLEPEDFAVYYCQQRSNWPRTFGQGTKVEIK | binds | no binding (tested: coated at 7-30000 ng/mL) |

Continued, in another order:

| binding result [2] | Binder | binding result [1] |
| --- | --- | --- |
| binds | bsIgG1-CD3×HER2-LFLEPS (IgG1-huCLB-T3/4×HER2-169 with L234F/L235E/P331S) (bispecific antibody) heavy 1: EVQLVESGGGLVKPGGSLRLSCAASGFTFSSYGMFWVRQAPGKGLEWVATISRYSRYIYYPDSVKGRFTISRDNAKNSLYLQMNSLRAEDTAVYYCARRPLYGSSPDYWGQGTLVTVSSASTKGPSVFPLAPSSKSTSGGTAALGCLVKDYFPEPVTVSWNSGALTSGVHTFPAVLQSSGLYSLSSVVTVPSSSLGTQTYICNVNHKPSNTKVDKRVEPKSCDKTHTCPPCPAPEFEGGPSVFLFPPKPKDTLMISRTPEVTCVVVDVSHEDPEVKFNWYVDGVEVHNAKTKPREEQYNSTYRVVSVLTVLHQDWLNGKEYKCKVSNKALPASIEKTISKAKGQPREPQVYTLPPSREEMTKNQVSLTCLVKGFYPSDIAVEWESNGQPENNYKTTPPVLDSDGSFLLYSKLTVDKSRWQQGNVFSCSVMHEALHNHYTQKSLSLSPGK VL 1: EIVLTQSPATLSLSPGERATLSCSASSSVTYVHWYQQKPGQAPRLLIYDTSKLASGIPARFSGSGSGTDFTLTISSLEPEDFAVYYCFQGSGYPLTFGSGTKLEMR heavy 2: QVQLVQSGAEVKKPGASVKVSCKASGYTFTNYGISWVRQAPGQGLEWMGWLSAYSGNTIYAQKLQGRVTMTTDTSTTTAYMELRSLRSDDTAVYYCARDRIVVRPDYFDYWGQGTLVTVSSASTKGPSVFPLAPSSKSTSGGTAALGCLVKDYFPEPVTVSWNSGALTSGVHTFPAVLQSSGLYSLSSVVTVPSSSLGTQTYICNVNHKPSNTKVDKRVEPKSCDKTHTCPPCPAPEFEGGPSVFLFPPKPKDTLMISRTPEVTCVVVDVSHEDPEVKFNWYVDGVEVHNAKTKPREEQYNSTYRVVSVLTVLHQDWLNGKEYKCKVSNKALPASIEKTISKAKGQPREPQVYTLPPSREEMTKNQVSLTCLVKGFYPSDIAVEWESNGQPENNYKTTPPVLDSDGSFFLYSRLTVDKSRWQQGNVFSCSVMHEALHNHYTQKSLSLSPGK VL 2: EIVLTQSPATLSLSPGERATLSCRASQSVSSYLAWYQQKPGQAPRLLIYDASNRATGIPARFSGSGSGTDFTLTISSLEPEDFAVYYCQQRSNWPRTFGQGTKVEIK | no binding (tested: coated at 7-30000 ng/mL) |
| binds | bsIgG1-CD3×HER2-LFLEDA (IgG1-huCLB-T3/4×HER2-169 with L234F/L235E/D265A) (bispecific antibody, also called huCLB-T3/4×HER2-LFLEDA; copies: 1 + 1 + 1 + 1) heavy 1: EVQLVESGGGLVKPGGSLRLSCAASGFTFSSYGMFWVRQAPGKGLEWVATISRYSRYIYYPDSVKGRFTISRDNAKNSLYLQMNSLRAEDTAVYYCARRPLYGSSPDYWGQGTLVTVSSASTKGPSVFPLAPSSKSTSGGTAALGCLVKDYFPEPVTVSWNSGALTSGVHTFPAVLQSSGLYSLSSVVTVPSSSLGTQTYICNVNHKPSNTKVDKRVEPKSCDKTHTCPPCPAPEFEGGPSVFLFPPKPKDTLMISRTPEVTCVVVAVSHEDPEVKFNWYVDGVEVHNAKTKPREEQYNSTYRVVSVLTVLHQDWLNGKEYKCKVSNKALPAPIEKTISKAKGQPREPQVYTLPPSREEMTKNQVSLTCLVKGFYPSDIAVEWESNGQPENNYKTTPPVLDSDGSFLLYSKLTVDKSRWQQGNVFSCSVMHEALHNHYTQKSLSLSPGK VL 1: EIVLTQSPATLSLSPGERATLSCSASSSVTYVHWYQQKPGQAPRLLIYDTSKLASGIPARFSGSGSGTDFTLTISSLEPEDFAVYYCFQGSGYPLTFGSGTKLEMR heavy 2: QVQLVQSGAEVKKPGASVKVSCKASGYTFTNYGISWVRQAPGQGLEWMGWLSAYSGNTIYAQKLQGRVTMTTDTSTTTAYMELRSLRSDDTAVYYCARDRIVVRPDYFDYWGQGTLVTVSSASTKGPSVFPLAPSSKSTSGGTAALGCLVKDYFPEPVTVSWNSGALTSGVHTFPAVLQSSGLYSLSSVVTVPSSSLGTQTYICNVNHKPSNTKVDKRVEPKSCDKTHTCPPCPAPEFEGGPSVFLFPPKPKDTLMISRTPEVTCVVVAVSHEDPEVKFNWYVDGVEVHNAKTKPREEQYNSTYRVVSVLTVLHQDWLNGKEYKCKVSNKALPAPIEKTISKAKGQPREPQVYTLPPSREEMTKNQVSLTCLVKGFYPSDIAVEWESNGQPENNYKTTPPVLDSDGSFFLYSRLTVDKSRWQQGNVFSCSVMHEALHNHYTQKSLSLSPGK VL 2: EIVLTQSPATLSLSPGERATLSCRASQSVSSYLAWYQQKPGQAPRLLIYDASNRATGIPARFSGSGSGTDFTLTISSLEPEDFAVYYCQQRSNWPRTFGQGTKVEIK | no binding (tested: coated at 7-30000 ng/mL) |
| binds | bsIgG1-CD3×HER2-N297Q (IgG1-huCLB-T3/4×HER2-169 with N297Q) (bispecific antibody, also called NQ) heavy 1: not shown VL 1: EIVLTQSPATLSLSPGERATLSCSASSSVTYVHWYQQKPGQAPRLLIYDTSKLASGIPARFSGSGSGTDFTLTISSLEPEDFAVYYCFQGSGYPLTFGSGTKLEMR heavy 2: not shown VL 2: EIVLTQSPATLSLSPGERATLSCRASQSVSSYLAWYQQKPGQAPRLLIYDASNRATGIPARFSGSGSGTDFTLTISSLEPEDFAVYYCQQRSNWPRTFGQGTKVEIK | no binding (tested: coated at 7-30000 ng/mL) |
